Experimental findings from US20150276749A1 (KONICA MINOLTA, published 2015) are described below.

Experiment [1] addresses T1, soluble-type human DSG3-mouse IgG2aFc fusion protein (human; mouse, UniProt P32926 50-616).
T1 construct: also called human desmoglein 3; desmoglein 3 standard; not shown: mouse IgG2a Fc, printed 'mouse IgG2aFc' and 'mouse IgG2 constant region'
T1 sequence: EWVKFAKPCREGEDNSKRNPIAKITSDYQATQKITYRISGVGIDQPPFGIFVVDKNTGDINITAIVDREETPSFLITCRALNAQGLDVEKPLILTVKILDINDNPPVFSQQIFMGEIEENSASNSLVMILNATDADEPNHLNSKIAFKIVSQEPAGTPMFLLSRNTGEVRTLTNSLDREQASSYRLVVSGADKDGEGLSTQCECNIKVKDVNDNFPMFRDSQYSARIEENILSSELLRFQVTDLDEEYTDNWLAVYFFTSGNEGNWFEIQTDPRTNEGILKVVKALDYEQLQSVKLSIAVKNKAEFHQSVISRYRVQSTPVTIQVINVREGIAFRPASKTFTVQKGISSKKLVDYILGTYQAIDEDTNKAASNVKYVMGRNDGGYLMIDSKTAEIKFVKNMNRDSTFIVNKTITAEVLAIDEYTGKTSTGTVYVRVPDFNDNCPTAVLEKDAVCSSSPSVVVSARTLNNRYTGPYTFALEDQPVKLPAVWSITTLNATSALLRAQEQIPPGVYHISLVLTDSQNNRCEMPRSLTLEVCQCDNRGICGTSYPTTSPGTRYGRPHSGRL
Description: sandwich ELISA, luminescence over blank; immobilized DF151, detection DF151; antigen 5000 pg/mL. The protocol: (§1) Subsequently, the antigen solutions having the above-described concentrations were each added to the plate in an amount of 50 μL/well, and the plate was incubated at room temperature for 1 hour. Then, the antigen solution was removed, and the plate was washed with 0.05% Tween 20-PBS three times. Thereafter, the 1-μg/mL biotinylated antibody solution was added in an amount of 50 μL/well, and the plate was incubated at room temperature for 1 hour.
(§2) Then, after removing the streptavidin-HRP solution and washing the plate with 0.05% Tween 20-PBS three times, a substrate solution (SuperSignal ELISA Femto Maximum Sensitivity Substrate (registered trademark); Pierce Biotechnology, Inc.) was added in an amount of 100 μL/well. One minute thereafter, the luminescence intensity was measured using a luminometer, Fluoroskan Ascent FL (trade name, Thermo Electron Corporation).
(§3) The numerical values shown in Table 1 represent the minimum values of the antigen solution concentration having an S/N ratio of higher than 2 (hereinafter, referred to as “detection limit concentration”) and the unit of the numerical values is pg/mL. The S/N ratio was determined by dividing the luminescence intensity at the respective antigen solution concentrations ([…]) by the luminescence intensity of an antigen-free blank antigen solution (0 μg/mL).
In general terms: In an ELISA, binding on a coated surface is turned into a signal by an enzyme label.

The target in experiment [2] is T1, soluble-type human DSG3-mouse IgG2aFc …. Description: sandwich ELISA, luminescence over blank; immobilized DF151, detection MAB1720; antigen 200 pg/mL. As for the experimental part:
as §1, §2, §3

Experiment [3] has the same target. The experiment can be described thus: sandwich ELISA, luminescence over blank; immobilized DF151, detection MAB1720; antigen 1 pg/mL. The protocol: as §1, §2
The numerical values shown in Table 1 represent the minimum values of the antigen solution concentration having an S/N ratio of higher than 2 (hereinafter, referred to as “detection limit concentration”) and the unit of the numerical values is pg/mL. […]

Experiment [4] has the same target. Description: SPFS sandwich; immobilized DF151, detection MAB1720; antigen 1,000 pg/mL (µg/mL in the source). As for the experimental part: (§4) Once again, a Tris-buffered saline (TBS) containing 0.05% by mass of Tween 20 was fed and circulated in the flow path for 10 minutes to wash the flow path. Then, with the flow path being filled with PBS buffer (pH 7.4), the assay area was irradiated with laser light (640 nm, 40 μW) from the back side of the metal thin films, and the fluorescence intensity was measured using a photomultiplier tube (PMT) arranged above the assay area. The thus measured value was defined as “signal” (S) at a desmoglein 3 concentration of 100 μg/mL.
(§5) On another front, the fluorescence intensity was also measured by the same procedures as described above, except that a PBS solution containing no desmoglein 3 (0 μg/mL) was fed in place of the PBS solution containing 100 μg/mL of desmoglein 3. The thus measured value was defined as “noise” (N).
(§6) Further, the fluorescence intensity was measured by the same procedures as described above, except that the desmoglein 3 concentration of the fed PBS solution was changed to 10,000 μg/mL, 5,000 μg/mL, 1,000 μg/mL, 200 μg/mL, 50 μg/mL, 10 μg/mL, 3.16 μg/mL, 1 μg/mL, 0.316 μg/mL, 0.1 μg/mL and 0.031 μg/mL. The thus measured values were each defined as “signal” (S) at the respective concentrations.

Experiment [5] has the same target. The experiment can be described thus: sandwich ELISA, luminescence over blank; immobilized DF151, detection MAB1720; antigen 25000 pg/mL. As for the experimental part: as §1, §2, §3
Experiment [6] shares this target. Description: sandwich ELISA, luminescence over blank; immobilized DF151, detection D219-3; antigen 10 pg/mL. The protocol:
as §1, §2, §3

For experiment [7] the target is unchanged. Description: SPFS sandwich; immobilized DF151, detection D219-3; antigen 1,000 pg/mL (µg/mL in the source). As for the experimental part: as §4, §5, §6
Experiment [8] shares this target. The experiment can be described thus: sandwich ELISA, luminescence over blank; immobilized DF151, detection D219-3; antigen 200 pg/mL. As for the experimental part: as §1, §2, §3
Experiment [9] shares this target. Description: sandwich ELISA, luminescence over blank; immobilized DF151, detection MAB1720; antigen 5000 pg/mL. The protocol: as §1, §2, §3

B1: DF151 (DF151[I] antibody) (antibody, mouse IgG2b, kappa, V domains shown)
VH: EVQLQQSGPELVKPGASVKISCKASGYSFTAYYMHWVKQSPEKCLEWIGQINPSTGGTTYNQKFKAKATLTVDKSSSTAYMQLKSLTSEDSAVYYCARWGDSWGQGTTLTVSS
VL: DIVLTQSPASLAVSLGQSVTISCRASESVEYYGTSLMQWYQQKPGQPPKLLIYGASDVESGVPARFSGSGSGTDFSLNIHPVEEDDIAMYFCQQSRKVPYTFGSGTKLEIKR
notes: Complete antibody; Biotinylated as detection antibody in ELISA; labeled with Alexa Fluor 647 as detection antibody in SPFS; also called DF151 antibody
Regarding B1, the S/N ratio in [1] turned out to be 11.1; in experiment [2], 1.6; in [3], 1; in [4], 60.8; in experiment [5] it was 82.2; in experiment [6], 0.9. The S/N ratio in [7] is 24.4; in experiment [8] it was 1; in experiment [9] it was 17.7.
